Results: US20200255836, “NUCLEIC ACID APTAMER FOR INHIBITING ACTIVITY OF GENOME-EDITING ENZYME” (NATIONAL INSTITUTE OF ADVANCED INDUSTRIAL SCIENCE AND …, published 2020)

Experiments:
[1] = molecular target: T1, Cas9 (His-Cas9) (Streptococcus pyogenes, UniProt Q99ZW2 Q99ZW2:1-1368); assay: EMSA; negative control; no complex band; settings: tags: His tag, expressed in E. coli
Procedure: (§1) The interaction between Cas9 protein and each nucleic acid aptamer having inhibitory activity was analyzed by gel shift assay. The detailed experimental conditions are as follows.
(§2) Amounts of 2 pmol of Cas9 protein and 20 pmol of each nucleic acid aptamer (s21, s21-2, s21-mm2, tetra, and St2-1SA (aptamer against streptavidin)) were incubated at normal temperature for 30 minutes in a binding buffer (20 mM Tris/HCl pH 8.0, 250 mM NaCl, 1 mM MgCl₂, 2.5% glycerol, 0.05% Tween-20, and 0.05 mg/ml tRNA). Then, the obtained product was electrophoresed on 8% acrylamide gel, and the gel was stained with SYBR Gold (Thermo Fisher Scientific Inc.), followed by analysis with Bio-Rad ChemiDoc XRS image analysis system (Bio-Rad Laboratories, Inc.). The sequence of St2-1SA is as described below (Table 13).

[2] = molecular target: T1, Cas9 (His-Cas9); assay: SPR; 5'-biotin s21 immobilized; Cas9 without guide; 20 mM Tris pH 8.0, 150 mM NaCl, 1 mM MgCl2; settings: tags: His tag, expressed in E. coli; hairpin (stem-loop)
Procedure: In order to calculate the dissociation constant (Kd) between Cas9 protein and each nucleic acid aptamer, surface plasmon resonance analysis was conducted. The detailed experimental approach was as follows.
5′-Biotinylated s21 was prepared and was immobilized on a streptavidin sensor chip (GE Healthcare Japan Corp.). Then, different concentrations (2.5 nM, 5 nM, 10 nM, and 20 nM) of Cas9 protein were loaded in a running buffer (20 mM Tris/HCl pH 8.0, 150 mM NaCl, 1 mM MgCl₂, and 0.005% Tween-20) to obtain sensorgrams. Kd was calculated with Biacore evaluation software package (GE Healthcare Japan Corp., Ver 2.0). Tetra was used as a control to conduct a similar test.

[3] = molecular target: T1, Cas9 (His-Cas9); assay: EMSA; Cas9 without guide; 250 mM NaCl, 1 mM MgCl2, tRNA; settings: tags: His tag, expressed in E. coli; hairpin, 7-base loop
Procedure: as §1, §2

[4] = molecular target: T1, Cas9 (His-Cas9); assay: EMSA; no complex band; 250 mM NaCl, 1 mM MgCl2, tRNA; settings: tags: His tag, expressed in E. coli; hairpin
Procedure: as §1, §2

T1 sequence (Q99ZW2 whole entry, one chain of several): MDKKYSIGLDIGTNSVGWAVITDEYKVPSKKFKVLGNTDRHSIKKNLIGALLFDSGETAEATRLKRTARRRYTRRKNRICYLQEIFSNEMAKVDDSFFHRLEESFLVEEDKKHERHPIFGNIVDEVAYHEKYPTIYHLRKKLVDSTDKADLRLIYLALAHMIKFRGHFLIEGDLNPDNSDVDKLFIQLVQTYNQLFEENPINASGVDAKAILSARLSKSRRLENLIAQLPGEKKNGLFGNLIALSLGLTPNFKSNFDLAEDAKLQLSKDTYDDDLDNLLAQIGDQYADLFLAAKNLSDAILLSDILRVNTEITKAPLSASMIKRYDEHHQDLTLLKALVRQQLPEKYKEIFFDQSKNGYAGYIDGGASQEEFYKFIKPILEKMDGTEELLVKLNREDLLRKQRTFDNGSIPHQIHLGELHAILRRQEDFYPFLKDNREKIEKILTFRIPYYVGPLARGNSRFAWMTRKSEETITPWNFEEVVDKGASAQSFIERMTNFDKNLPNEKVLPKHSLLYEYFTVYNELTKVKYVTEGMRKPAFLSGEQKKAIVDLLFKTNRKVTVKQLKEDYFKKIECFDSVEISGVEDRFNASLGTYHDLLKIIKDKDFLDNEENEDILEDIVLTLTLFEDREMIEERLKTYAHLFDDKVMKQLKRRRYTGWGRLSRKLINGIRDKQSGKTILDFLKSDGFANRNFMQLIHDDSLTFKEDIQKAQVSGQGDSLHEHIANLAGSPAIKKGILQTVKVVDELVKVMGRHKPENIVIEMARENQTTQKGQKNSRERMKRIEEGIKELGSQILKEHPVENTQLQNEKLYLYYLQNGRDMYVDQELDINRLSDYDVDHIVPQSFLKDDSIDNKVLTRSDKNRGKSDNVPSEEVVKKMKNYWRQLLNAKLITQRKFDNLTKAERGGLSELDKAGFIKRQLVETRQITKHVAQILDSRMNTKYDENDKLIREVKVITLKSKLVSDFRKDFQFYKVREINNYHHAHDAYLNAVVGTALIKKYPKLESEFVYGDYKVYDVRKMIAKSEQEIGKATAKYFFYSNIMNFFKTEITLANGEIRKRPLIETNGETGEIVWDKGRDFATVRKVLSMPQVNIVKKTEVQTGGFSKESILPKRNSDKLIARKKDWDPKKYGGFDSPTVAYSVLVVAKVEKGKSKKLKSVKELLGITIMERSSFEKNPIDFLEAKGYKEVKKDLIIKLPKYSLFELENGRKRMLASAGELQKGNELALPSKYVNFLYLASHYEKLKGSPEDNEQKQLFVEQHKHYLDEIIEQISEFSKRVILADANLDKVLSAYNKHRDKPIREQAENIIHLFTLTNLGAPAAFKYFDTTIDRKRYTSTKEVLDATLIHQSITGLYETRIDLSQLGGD

## ATTGACCGCTGTGTGACGCAACACTCAAT (ssDNA) [St2-1SA (streptavidin aptamer)]
[1]
  binding result: no binding

## GAGGCTCTCACATCGCGCCTTTCCCCAGCTTTCGGTGTGAGAGCCTC (ssDNA) [s21]
[2]
  Kd: 0.57 nM

## GAGGCTCTCACATCGCGCCTTTCGGTGTGAGAGCCTC (ssDNA) [s21-2]
[3]
  binding result: binds

## GAGGCTCTCACAGCGCGCCTTTCGTTGTGAGAGCCTC (ssDNA) [s21-2mm2]
[4]
  binding result: no binding
